Data taken from paper PMC11496786.

Key:
[1] = target: mutant outer-arm dynein (OAD) of the Chlamydomonas mutant 214 (oda6E279K), carrying IC2 E279K (Chlamydomonas reinhardtii (endogenous in flagellar axonemes)) (UniProt Q39610)
[2] = target: wild-type outer-arm dynein (OAD) of Chlamydomonas (Chlamydomonas reinhardtii (endogenous in flagellar axonemes)) (UniProt Q39610)

Substance | microtubule sliding speed in microtubule bundles formed with OAD, on perfusion with 1 mM ATP [1] [μm/sec] | microtubule sliding speed in microtubule bundles formed with OAD, on perfusion with 1 mM ATP [2] [μm/sec]
mutant outer-arm dynein (OAD) of the Chlamydomonas mutant 214 (oda6E279K), carrying IC2 E279K (from UniProt Q39610 1-4499; Q39565 1-4568; Q39575 1-4485; Q39578 1-683; P27766 1-567) (complex) | 4.3 | –
wild-type outer-arm dynein (OAD) of Chlamydomonas (from UniProt Q39610 1-4499; Q39565 1-4568; Q39575 1-4485; Q39578 1-683; P27766 1-567) (complex) | – | 35.3
